Laboratory results as given in patent US20260317782 (published 2026).

biological target: wild type tau (human, UniProt P10636); assay: ELISA
Sequence (P10636 2-758): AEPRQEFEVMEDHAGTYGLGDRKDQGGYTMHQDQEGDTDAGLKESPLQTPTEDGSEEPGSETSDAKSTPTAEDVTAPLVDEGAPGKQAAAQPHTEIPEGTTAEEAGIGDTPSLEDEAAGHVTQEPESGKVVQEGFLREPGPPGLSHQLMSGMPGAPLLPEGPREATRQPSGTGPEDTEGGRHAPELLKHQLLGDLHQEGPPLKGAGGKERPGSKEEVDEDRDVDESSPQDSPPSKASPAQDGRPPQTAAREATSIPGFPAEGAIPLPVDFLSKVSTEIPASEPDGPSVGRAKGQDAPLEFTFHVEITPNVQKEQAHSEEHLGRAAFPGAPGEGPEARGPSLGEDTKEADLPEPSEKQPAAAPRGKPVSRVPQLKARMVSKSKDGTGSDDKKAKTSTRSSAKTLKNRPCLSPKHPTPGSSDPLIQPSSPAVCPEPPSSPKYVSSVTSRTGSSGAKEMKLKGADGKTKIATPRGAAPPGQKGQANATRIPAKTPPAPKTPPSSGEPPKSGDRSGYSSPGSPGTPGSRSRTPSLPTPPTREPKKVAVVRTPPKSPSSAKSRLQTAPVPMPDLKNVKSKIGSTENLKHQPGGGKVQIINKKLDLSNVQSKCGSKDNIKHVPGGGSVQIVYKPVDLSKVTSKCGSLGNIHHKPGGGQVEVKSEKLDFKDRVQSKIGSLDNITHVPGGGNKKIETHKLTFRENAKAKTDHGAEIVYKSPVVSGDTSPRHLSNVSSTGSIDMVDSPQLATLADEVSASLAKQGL

binding result	Binder
no binding	V0004 (antibody, V domains shown, non-phosphorylated) VH: QVQLQQPGAELVKPGASVKLSCKASDYTFTNYWMHWVKQRPGRGLEWIGRIDPNSGGTRYNEKFKNKATLTVDKPSSTAYMHLSSLTSEDSAVYYCAGDFDVWGTGTTVTVSS VL: DIQMTQSPASLSASVGETVTITCRASGNIHNYLAWYQQRQGKSPQLLVYNAKTLPDGVPSRFSGSGSGTQYSLKINSLQPEDFGSYCCQHFWSTPLTFGAGTKLELK
no binding	V0009 (antibody, V domains shown, non-phosphorylated) VH: EVQLVESGGALVQPGGSLSLSCAASGFTFTDYYMSWVRQPPGKALEWLALIRNKAKGFTTEYSASVKGRFTISRDNSQSILLFQMNDLRADDSATYYCVRDINYWGQGTTLTVSS VL: not shown
no binding	V0024 (antibody, V domains shown, non-phosphorylated) VH: QVQLQQPGTELVKPGASVKLSCKASGYTFTRFWMHWVKQRPGQGLEWIGNINPNNGGTDNNERFKSKATLTVDRSSSTAYMQLSSLTSEDSAVYYCARGTGTGAMDYWGQGTSVTVSS VL: DVVMTQTPLSLPVSLGDQASISCRSSQSLVHSNGNTHLYWYLQKPGQSPKLLIYRVSSRFSGVPDRFSGSGSGTDFTLKISRVEAEDLGVYFCFQGTHVPRTFGGGTKLEIK
